According to paper PMC2734569, “Functional mapping of the fission yeast DNA polymerase δ B-subunit Cdc1 by site-directed and random pentapeptide insertion mutagenesis” (BMC Molecular Biology, 2009):
Substitutions are numbered along the chain they refer to.

Columns and labels:
Assay in all cases: two-hybrid; LexA-Cdc1 bait (pBTM116 or pBTM116BN) with Gal4-Pol3 prey and co-expressed c-myc-tagged Cdc27 (pAA-Cdc27) in S. cerevisiae CTY10-5d; ONPG liquid culture beta-galactosidase assay, mean of triplicates, as percent of wild-type Cdc1
Details in all cases: partners not purified
[1] = molecular target: T1, Cdc1-J4 (Schizosaccharomyces pombe, UniProt P87324 1-462, Ile-GlyValProArgIle-Asp)
T1 construct: Cdc1, S. pombe, with a pentapeptide inserted after residue 127; also called J5; J13; source: yeast two-hybrid fusion, in S. cerevisiae CTY10-5d
T1 sequence (looked up): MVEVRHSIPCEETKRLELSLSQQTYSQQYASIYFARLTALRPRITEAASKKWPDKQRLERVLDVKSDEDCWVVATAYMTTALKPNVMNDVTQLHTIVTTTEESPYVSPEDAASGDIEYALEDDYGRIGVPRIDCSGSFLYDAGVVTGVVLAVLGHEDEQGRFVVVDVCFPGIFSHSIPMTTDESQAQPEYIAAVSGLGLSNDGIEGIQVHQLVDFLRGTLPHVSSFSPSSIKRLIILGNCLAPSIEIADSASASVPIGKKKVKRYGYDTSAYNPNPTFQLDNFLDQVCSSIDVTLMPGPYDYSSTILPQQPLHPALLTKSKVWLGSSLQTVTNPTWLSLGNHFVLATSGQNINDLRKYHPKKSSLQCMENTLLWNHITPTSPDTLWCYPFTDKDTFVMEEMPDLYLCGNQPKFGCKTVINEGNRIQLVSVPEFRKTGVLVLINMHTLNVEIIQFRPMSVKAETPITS

[2] = molecular target: T2, Cdc1-A3 (Schizosaccharomyces pombe, UniProt P87324 1-462, Asp296Ala)
T2 construct: Cdc1, S. pombe, point mutant; source: yeast two-hybrid fusion, in S. cerevisiae CTY10-5d
T2 sequence (looked up): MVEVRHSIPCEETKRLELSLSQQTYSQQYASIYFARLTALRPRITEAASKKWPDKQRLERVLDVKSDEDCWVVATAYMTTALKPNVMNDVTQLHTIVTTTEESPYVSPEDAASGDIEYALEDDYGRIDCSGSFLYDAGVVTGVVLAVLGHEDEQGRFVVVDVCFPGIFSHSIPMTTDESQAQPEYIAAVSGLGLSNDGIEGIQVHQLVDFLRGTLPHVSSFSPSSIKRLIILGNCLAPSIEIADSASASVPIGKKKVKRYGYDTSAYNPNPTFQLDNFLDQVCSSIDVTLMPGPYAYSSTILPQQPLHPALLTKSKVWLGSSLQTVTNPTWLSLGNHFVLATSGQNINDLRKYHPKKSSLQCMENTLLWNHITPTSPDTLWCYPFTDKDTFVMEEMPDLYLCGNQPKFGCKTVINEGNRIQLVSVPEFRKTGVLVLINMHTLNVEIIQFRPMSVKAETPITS

[3] = molecular target: T3, Cdc1-E1 (Schizosaccharomyces pombe, UniProt P87324 1-462, Ser-GlyValProGlnSer-Asp)
T3 construct: Cdc1, S. pombe, with a pentapeptide inserted after residue 66; source: yeast two-hybrid fusion, in S. cerevisiae CTY10-5d
T3 sequence (looked up): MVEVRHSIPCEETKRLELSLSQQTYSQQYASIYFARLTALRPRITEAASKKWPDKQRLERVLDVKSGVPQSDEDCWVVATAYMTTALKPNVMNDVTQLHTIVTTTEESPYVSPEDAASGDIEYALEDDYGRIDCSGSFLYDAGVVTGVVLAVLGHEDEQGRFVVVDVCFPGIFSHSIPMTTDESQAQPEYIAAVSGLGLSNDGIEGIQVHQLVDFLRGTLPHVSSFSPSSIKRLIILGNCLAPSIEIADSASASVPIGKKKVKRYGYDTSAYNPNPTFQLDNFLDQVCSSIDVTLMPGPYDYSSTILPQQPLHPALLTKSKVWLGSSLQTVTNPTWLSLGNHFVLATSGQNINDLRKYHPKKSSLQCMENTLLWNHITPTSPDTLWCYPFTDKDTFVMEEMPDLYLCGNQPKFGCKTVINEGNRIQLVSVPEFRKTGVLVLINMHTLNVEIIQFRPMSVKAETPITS

[4] = molecular target: T4, Cdc1-E9 (Schizosaccharomyces pombe, UniProt P87324 1-462, Tyr-GlyGlyTyrProTyr-Gly)
T4 construct: Cdc1, S. pombe, with a pentapeptide inserted after residue 124; source: yeast two-hybrid fusion, in S. cerevisiae CTY10-5d
T4 sequence (looked up): T1 sequence (looked up) with R126G, I127Y, G128P, V129Y, P130G

B1: Pol3 (fission yeast DNA polymerase delta catalytic subunit) (natural protein, Schizosaccharomyces pombe, UniProt P30316 1-1086, looked up)
chain: MTDRSSNEGVVLNKENYPFPRRNGSIHGEITDVKRRRLSERNGYGDKKGSSSKEKTSSFEDELAEYASQLDQDEIKSSKDQQWQRPALPAINPEKDDIYFQQIDSEEFTEGSVPSIRLFGVTDNGNSILVHVVGFLPYFYVKAPVGFRPEMLERFTQDLDATCNGGVIDHCIIEMKENLYGFQGNEKSPFIKIFTTNPRILSRARNVFERGEFNFEELFPVGVGVTTFESNTQYLLRFMIDCDVVGMNWIHLPASKYQFRYQNRVSNCQIEAWINYKDLISLPAEGQWSKMAPLRIMSFDIECAGRKGVFPDPSIDPVIQIASIVTQYGDSTPFVRNVFCVDTCSQIVGTQVYEFQNQAEMLSSWSKFVRDVDPDVLIGYNICNFDIPYLLDRAKSLRIHNFPLLGRIHNFFSVAKETTFSSKAYGTRESKTTSIPGRLQLDMLQVMQRDFKLRSYSLNAVCSQFLGEQKEDVHYSIITDLQNGTADSRRRLAIYCLKDAYLPQRLMDKLMCFVNYTEMARVTGVPFNFLLARGQQIKVISQLFRKALQHDLVVPNIRVNGTDEQYEGATVIEPIKGYYDTPIATLDFSSLYPSIMQAHNLCYTTLLDSNTAELLKLKQDVDYSVTPNGDYFVKPHVRKGLLPIILADLLNARKKAKADLKKETDPFKKAVLDGRQLALKVSANSVYGFTGATNGRLPCLAISSSVTSYGRQMIEKTKDVVEKRYRIENGYSHDAVVIYGDTDSVMVKFGVKTLPEAMKLGEEAANYVSDQFPNPIKLEFEKVYFPYLLISKKRYAGLFWTRTDTYDKMDSKGIETVRRDNCPLVSYVIDTALRKMLIDQDVEGAQLFTKKVISDLLQNKIDMSQLVITKALSKTDYAAKMAHVELAERMRKRDAGSAPAIGDRVAYVIIKGAQGDQFYMRSEDPIYVLENNIPIDAKYYLENQLSKPLLRIFEPILGEKASSLLHGDHTRTISMAAPSVGGIMKFAVKVETCLGCKAPIKKGKTALCENCLNRSAELYQRQVAQVNDLEVRFARLWTQCQRCQGSMHQDVICTSRDCPIFYMRIAEHKKLQQSVDLLKRFDEMSW
notes: DNA polymerase delta catalytic subunit Pol3, S. pombe; prey plasmid named pACT-Pol3 in the results and pGAD2F-Pol3 in the methods; also called Gal4-Pol3; pACT-Pol3; source: yeast two-hybrid fusion, in S. cerevisiae CTY10-5d
Question: Which “two-hybrid beta-galactosidase activity, % of wild-type Cdc1” value [1] does the source give for B1 here?
Answer: 36%

Question: What about the “two-hybrid beta-galactosidase activity, % of wild-type Cdc1” value [2] of the same binder?
Answer: < 1%

Question: And the “two-hybrid beta-galactosidase activity, % of wild-type Cdc1” value [3]?
Answer: 65%

Question: What about the “two-hybrid beta-galactosidase activity, % of wild-type Cdc1” value [4] of the same binder?
Answer: 24%
